What all share (settings): tags: HEK-Blue mouse TLR9 reporter cells, InvivoGen
The target of data set [1] is T1, TLR9 (Mus musculus, UniProt Q9EQU3 Q9EQU3:26-1032).
T1 sequence: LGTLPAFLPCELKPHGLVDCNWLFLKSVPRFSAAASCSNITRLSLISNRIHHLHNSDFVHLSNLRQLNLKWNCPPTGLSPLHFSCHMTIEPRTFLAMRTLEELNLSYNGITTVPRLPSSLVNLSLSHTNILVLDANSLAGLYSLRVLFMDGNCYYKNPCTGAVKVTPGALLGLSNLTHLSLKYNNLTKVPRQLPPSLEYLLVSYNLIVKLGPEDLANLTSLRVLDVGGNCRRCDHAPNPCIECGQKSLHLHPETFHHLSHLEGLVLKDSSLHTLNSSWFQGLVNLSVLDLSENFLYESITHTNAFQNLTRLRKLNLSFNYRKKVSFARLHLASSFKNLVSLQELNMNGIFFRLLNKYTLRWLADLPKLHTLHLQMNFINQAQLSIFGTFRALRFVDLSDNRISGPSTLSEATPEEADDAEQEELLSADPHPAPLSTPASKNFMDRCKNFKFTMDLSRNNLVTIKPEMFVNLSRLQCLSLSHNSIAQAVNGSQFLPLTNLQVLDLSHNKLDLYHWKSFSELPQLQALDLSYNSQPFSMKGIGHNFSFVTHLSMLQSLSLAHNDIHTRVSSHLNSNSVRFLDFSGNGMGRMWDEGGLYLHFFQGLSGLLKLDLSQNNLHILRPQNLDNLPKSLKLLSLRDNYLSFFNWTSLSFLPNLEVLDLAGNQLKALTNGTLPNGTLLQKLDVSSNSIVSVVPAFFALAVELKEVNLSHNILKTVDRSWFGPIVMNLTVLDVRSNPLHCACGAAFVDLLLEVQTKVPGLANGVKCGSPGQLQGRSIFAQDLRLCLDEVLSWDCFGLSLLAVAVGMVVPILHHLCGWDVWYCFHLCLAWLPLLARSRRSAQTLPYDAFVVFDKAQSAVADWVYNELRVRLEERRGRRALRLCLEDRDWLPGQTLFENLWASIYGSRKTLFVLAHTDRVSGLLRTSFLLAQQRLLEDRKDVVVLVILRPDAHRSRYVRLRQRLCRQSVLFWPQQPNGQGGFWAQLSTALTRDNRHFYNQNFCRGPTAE
Description: cell_activity; SEAP reporter activation, 37 C. As for the experimental part:
(§1) HEK-Blue cells expressing mouse TLR9 (InvivoGen) were cultured in a complete DMEM medium (Dulbecco's modified Eagle's medium), which was supplemented with 100 μg/ml Normocin, 30 μg/ml Blasticidin, and 100 μg/ml Zeocin (all InvivoGen). HEK-Blue cells contained a secreted alkaline phosphatase (SEAP) reporting system, which produces colorimetric changes after interacting with TLR9.
(§2) HEK-Blue Detection mixture (cell culture medium for SEAP detection, InvivoGen) is used to detect the presence of SEAP, which is produced by stimulation of a TLR9 ligand through NF-κB activation. Detection mixture contained nutrients for cell growth and color substrate, whose color will change when it is hydrolyzed by SEAP. When HEK 293 cells expressing mouse TLR9 (InvivoGen) reached 60-80% confluency, they were collected, centrifuged and resuspended in Detection mixture. Cells (72,000) were seeded in each well of a 96-well plate (180 μl). The cells were then treated in combination with 20 μl PBS (unstimulated; as a negative control group), “CpG-L0-PS” (as a positive control group) or nucleic acid-drug complex samples of varying concentrations in PBS in duplicate wells, and incubated for 24 hours at 37° C. in 5% CO₂. The plate was read spectrophotometrically by using a multimode plate reader (Tecan, Infinite™ M200 PRO, Männedorf, Switzerland) at a wavelength of 620 nm to 655 nm.

In data set [2] the target is T1, TLR9. Description: cell_activity; SEAP reporter activation, 37 C. On the procedure:
as §1, §2
The experimental content is substantially the same as that of FIG. 4. The sample “CpG-L0-PS” in FIG. 5 corresponds to SEQ ID NO: 10 (which was not connected with anti-PD-L1 aptamer), and all phosphodiester bonds in the CpG oligonucleotide sequence were modified to phosphorothioate bonds.
This is another data set of the same source.

In data set [3] the target is T1, TLR9. Briefly: cell_activity; SEAP reporter activation, 37 C; 1.3 nM in FIG. 5 experiment. As for the experimental part:
as §1, §2

Data set [4] has as its target T1, TLR9. Description: cell_activity; SEAP reporter activation, 37 C; 2.1 nM in FIG. 5 experiment. On the procedure:
as §1, §2

For data set [5], the target named is T1, TLR9. Description: cell_activity; SEAP reporter activation, 37 C; 5.5 nM in FIG. 5 experiment. On the procedure: as §1, §2

B1: PDL1-CpG30-PS (ssDNA)
DNA: CACATCAACTCATTGATAGACAATGCGTCCTCGAACGTTCGAACGTTCGAACGTTCGAAT
modifications: PS at all linkages of the CpG part
With B1, the 50% effective concentration (EC50) (as a rule, the concentration giving half of the maximal effect) with TLR9 [1] worked out at 2.36 nM.

B2: PDL1-CpG29-9PS (ssDNA)
DNA: CACATCAACTCATTGATAGACAATGCGTCCTTCGAACGTTCGAACGTTCGAACGTTCGAA
modifications: PS at part of the linkages of the CpG part
As for B2, the EC50 with TLR9 [1] stood at 149 nM.

B3: ApDC-A33B (ssDNA)
DNA: TTTCGAACGTTCGAACGCCACATCAACTCATTGATAGACAATGCGTCCACCGTTCGAACGTTCGATT
modifications: PS at part of the linkages of the CpG part
With B3, the 50% effective concentration (EC50) with TLR9 [2] amounted to 16400 nM.
With TCGAACGTTCGAATACTCATTGATAGACAATGCGTTTCGAACGTTCGAAT (ssDNA, PS at all linkages of the CpG part) [ApDC-B21B], in the data set with TLR9 [2], the half-maximal effective concentration (EC50) came out at 0.6 nM.

B4: ApDC-A21B (ssDNA)
DNA: TCGAACGTTCGAACGACTCATTGATAGACAATGCGTTTCGAACGTTCGAAT
modifications: PS at all linkages of the CpG part
For B4, the EC50 with TLR9 [3] turned out to be 0.77 nM.

B5: ApDC-A21A (ssDNA)
DNA: TCGAACGTTCGAACGACTCATTGATAGACAATGCGTTCGAACGTTCGAACG
modifications: PS at all linkages of the CpG part
Take B5: in the data set with TLR9 [2], the EC50 was 0.6 nM.
With TCGAACGTTCGAACGTTCGAACGTTCGAAT (ssDNA, PS at all linkages) [CpG-L0-PS], in the data set with TLR9 [4], the EC50 turned out to be 2.09 nM.

B6: ApDC5-PS (ssDNA)
DNA: TCGAACGTTCGAACGTTCGAACGTTCGAATCACATCAACTCATTGATAGACAATGCGTCC
modifications: PS at all linkages of the CpG part
With B6, the 50% effective concentration (EC50) with TLR9 [5] amounted to 2.48 nM.

B7: ApDC5-7PS (ssDNA)
DNA: B6 DNA
modifications: PS at part of the linkages of the CpG part
Turning to B7, in the data set with TLR9 [1], the EC50 came out at 72.2 nM.

(Values after patent US20210230600, “NUCLEIC ACID-DRUG COMPLEX AND USE THEREOF” (Industrial Technology Research Institute, published 2021).)
